# Experimental data from the DeepSol protein solubility set.
# Assay: soluble on expression in E. coli; label from the status in PepcDB or PDB records
row,Sequence,soluble on expression in E. coli
1,MGSDKIHHHHHHMGRLFYKPENAWVGDLIPYYENGTYYGFYLHDPRIRDKEYAEDTTWHLIETKDFVNLDYKGESIARGGIHDANKNAYTGSVIKCEKDGLYHVFYTAYNEDFKLRGKTIQSVMQATGKNLENLETVKDFLFVSDGKQYEEFDWRDPFVFWNDEDQCYYMLLASRVTNRGDLRGGCIALCKSEDLINWTYEKPFYDPKMYITMECPELFKMGEYWYLVFSTFSDQFTTHYRISKNWNGPWEIPDDDVFDTRADYAIKTASDGKRRFAFGWIASKYGNTDFGPWEWGGTMNFHEIIQNSKNGELRIKAIPEVLDYFSKEIELKKETLYNCKMVQAQDGVSVESDTLGALLYPLEGDTFALDMVIKPERYHEFGIALHVDKELETGYFLRMNPKNQLVAWDMWPRGEQGRYQWQIKGDVPYQIETARKLPKAEEYRVHIIKEKDICVVYINDEIVLSTRMYNHKDGYAGIYVVQGDVKLIQYKEKRSE,not soluble
2,MGSDKIHHHHHHMGVKTAAIKPQINRFFERIINMIIDRERVKNTFAEYTSGYNATDPKIKLKIDHTYRVAELCELIARNLKLDEYETDVAWLTGMLHDVGRFEQIKCYNTFNDALSVDHANFGADLLFKEGLIDTYVDGFHDDKYGTIVENAIRNHSAFRIDERLDEYTVMFCNILRDADKVDIFRVNVDTPAEDIYNVTTEELKNSQVSPEVMAAFDERHAVLRSCKKTVVDHVAGHIALTFELVYPISLQIANERGYLDKMMAFESDNEVTGKQFEEIRAKLNEYVASVKPL,not soluble
3,MGSDKIHHHHHHMGVMMKQKIKILTVIGLMTVGMSACHNTSKPSNTDSVFSLTGKKRQQIVKQVRQRYYFQQLSKTEQENYLTLYDSLAQFREIISLTPASKKSLIKTIDAFVMDNPEFYWITSADYRFEFSDQTVFVTFPIPEDAKNIYQDLQAIGNDIVANTPSKDRYEQVKYFYEVIIRDTDYNKKAFEAYQSGSQAQVASNQDIKSVFIDHLSVCNGYAQAFQFLCQKAGIPVAYIRGTGTSQQPQQSFAHAWNAVQINNTYYGVDVTWGDPVFDNHLSHQKQGTINYSFLCLPDYLMALSHQPSKDIAFNTKERFENVWTIPSCTDDSLLYSKRHQSYISTFDSDAILASLENQLLNRQEPLSLQFAHQDDYQQMVTDLTTNQTGYHNLFNQYWNNYTGFTYGLLPETLSISFASRN,not soluble
4,MGSDKIHHHHHHMGYRTLKSIFHEHNESKMKEEYTKRFNSLASFNTNINIIPMENGKKVNDLEYPLFFMVTKNLSKKQELISINSRKIDRALNSLPYAAREQYFNDLLIDELQSTNEIENVFSTKQEIAHALNNQASEFLKFRGLVDQYKEIELNKKIKVDNVRDIRAIYDKLVSNEINEQDKLDGELFRKNFVGVHDGSTNKYIHVGLQPETKIVEYIGEMLTFLKYFDAPQPFKIMASHYLFEYIHPFYDGNGRVGRFIIAKLLSDYYDNYTALTFSYVINRNKSKYYKAFMTASNHLNCGDLTEFIDTMLELLIAGQERILDELIPKMDATEKLTLYLTSHYKQIDYEFLYLLSMDKLFGNKRNRLTLIDLENILGVGRVKINNTIKKYDNYLVKIKSRPIIYEISDEFLNSIIK,not soluble
5,MGSDKIHHHHHHMHLGKINEDVFNKVIYPHLGERRKEVVVGPQHGVDTGAIDLQDGRVLVVKTDPVFIVPQFGFKKAAWFAVHILASDVMTSGIPPEYAVIDLNLPPRIKDEEFEEMWIGIHEALKEIGVMVVGGHTGVYEGTDYPMVGGFTMFGIGEKERLGMPSKVKVGDSVIMTKGPAIEATGLLTNLYPEYFKQRLSNEIFNEAYNMYWKMSCWKDGLIASRIGIHMMHDATEGGVFGALTEVARASSKGMRIYEERFFINRAVREVTKLVNIDPWISISEGTMIIVTDKGEEVRNTLIREGIEAEIIGEIVDQSGEVTMVKKDGSRVKIEHPLEDPFWRAFFDLASKT,not soluble
6,MGSDKIHHHHHHMHLLFPEVCILCQKPLGEGEEHICAGCFNDFNPFPSVLAGGAALKSTVRAHFGEKAVPAAAWCLYPYRSRGSLHEAMHAMKYGGLFPLGELFGKRLGELICQGGVPVGFDAIVPVPLHHLKRIERTYNQAEALARGMAGLIGLPVATRSLERCVYTGTQTGLGLEARRENMAGAFRPGRERCPARVLLVDDVLTTGATMVSAAKVLKAAGAVEVAFATVALTEKE,not soluble
7,MGSDKIHHHHHHMHLSINLLPILSQHQVSFNTDIYCLEKFMFQIDTLIAAKIVDRTMKIIGHNINVMNAQAVILGSGDIDRIGTVHEGALLAISQNRNVEISQAIASNLHGVKPGLNLPLHYHGQVVGVIGITGEPDTLSHYGELLKMTAEMIVEQANLQEQLQWQNRQTEEFISQLIHANEQDLPSLQQWALQLGIDLSVPRVAAIIELDSNNPLYQQDNQALKQVLYLLQNPVRDNLIAMTSLTQLVILKPAFLDGKQFDPELENQRINKLLKRLPANMQLSLHISLGHYFGGELGISYSYRTAKETLDIGKKLHPTKTKYLYQDYSLQVLLSGLRHHWRGNALAGPYLKLIEVDNNQQLQKTLAAYLDHMGDIQACANSLFIHRNTLRYRLDKIQTITNIDLRSFNGLLSLYLGQLIHQPST,not soluble
8,MGSDKIHHHHHHMHMKLDDITYMNPWWEGKEDYHVKQWEKQKVHWEPKWIREISLKPFSLNFVLGPRQVGKTTGIKLLIQKILEENPPESVLYLNLEILPTYRELLDIIREFQELKKEEGIKTGYIFLDEASSLEGWWRGVKPLIDSGLLENDVITVTGSSSLRVRRDIELFPGRRGGGKTLEVMPLSFPEYARVMGLKKHKLEGSKVIKLFEKYIQTGGFPGSINGFPMEDLLGAYIGEFVRFGKSLEIAKEIFSALIRSAPSATSFRALAEMTSGYSYKVVQDYIEFFRDLYILGMAYLKQGNQVMYRREKKFFFRDPLLAKLFSLWSGTEIGKDALYEWIVQEHVFRKFGEIHYFRNSYEIDIIASDMKIEVKAGKAHRKYPRGVKVLEKEDVPFFLIELYNEDC,not soluble
9,MGSDKIHHHHHHMHQDTVRATAFAMPLTSPAYPVGPYRFRNREYLIITYRTDPKKLRSLVPEPLELSEPLVKFEFIRMPDSTGFGNYTESGQVIPVTFRGRKGSYTHCMFLNDHPPIAGGRELWGFPKKLATPTLRTETDTLVGTLDYGPVRVATATMGYKHEAADLSAVRSSLAEPNFLLKIIPHVDGTPRICELVEYHLEDVDLRGAWAGPASLNLWSHALAPVAELPVLEVVSAMHIVADLTLALGKVVHDYLPKSEPRDLKGRSHAFAE,not soluble
10,MGSDKIHHHHHHMHRVGFTTTIPLEIVLAAGMTPVDLNNVFITSPHATRMIEEAEVDGFPRSICGWIKGIYAAVVECGIHELIAVTEGDCSNTRALMEVLSLKGVETIPFAYPHDRDPAGLRFEIEKLMRRFGVGWDAVKLSRERLGRIRRKVKEIDRLTWDENRVSGQENHYFQVCTSDMNSDPDRFEAEVDAFLEKARQREPFRQRLRLAYIGVPPIMTDLYPFVETLDARVVFNETQRQFAMPFDTPDLVEQYRAYTYPYDIFHRLSDILMELERRKVDAVIHYVQSFCFRQIEDMIVRQKLPLPVLTLEGDKPGPLDARTRIRIEGFLEMLA,not soluble
11,MGSDKIHHHHHHMHSFHDAFSAPNAGNDTEAKRLPAKRRIRLKTAVLGVLLLASVAAQAEPRLTDLQYIGSHNSYHAGFAPSEATLLKQHDPAAFATLDYRHPPLTQQLDDGVRQLELDVFADAHGGRYAHPAIVEQIAKAGLPPAPASAPAGVMNKPGFKVLHVQDVDQRSTCQPLVTCLQEVRAWSQQHPGHLPIFILLETKQSPVQLSFPTVQPEPFDRKAMDALDAELRSVFRPGEYVSPDTVRGTARTLNAAVLAHGWPALRATRGKVVFLLDQRAAGASYLPGHPSLRGRVCFTNAEPGQDDAAFTERNDGPAEDITRLVQAGYLVRTRTDADLKEPARGDNRRRDAMLATGAQLLSTDFPAHEPARNGYVVRFDGDAVARCAPQLPRAHCEGVDLTH,not soluble
12,MGSDKIHHHHHHMIAVLDMGTNSFILLVVSEKGETILEEVHEVGIASGNLEKAKEVFKECVEKAEKMGAELHIFGTAFFRKHPDIFQQITGGRGEILPEEKEAYYSYISVAKDFGKKDILVADLGGGSLELAWKDGYVSLELGTHVLNRTFSLTLPYIEPVDGIVEYVMKRLPEVKKDELFGVGGSFVALAALMKGKWDLEILHGSVLKLEEVEKLVDKIKRMSFEDVKNLKVLPEGREKTILAGGIVTIALLRKYSPRMTVSTRGYRYGIVWEILEKRWRARGDSNPQPPDPQSGALSN,not soluble
13,MGSDKIHHHHHHMIDSHAHLISADVERYPTSPLSGELEPGALDNPVTAERLLALMDEQGIERALAVQRAHIYGFNNAYVCDAAQRYPERLRALGMVDALDQNIREQVRHWVGERGAVGIRLTEPFKGADPSWFASPEAMAAWETVSELGGSVRLHFYRWNREAALKALKPVLQRFPQTTVVLDHFSNIVGESGAPDHGVDATLLEMVEHSNVYLLYSMINLGKLAAAQMAAAPMVERVVREFGADRVMWGSDVAQSKGSYAQMVALAKESVSLLSETDQRKVLHDTAHAVYWGTR,not soluble
14,MGSDKIHHHHHHMIERKRYVTMKGHRGGLAVYVNERCSVDEFLDDLELTLADKSVENGRAVPITFFFGRRYVDEGVVTAVESIVARHDSFSFNGYDSECLTKDEAKALYGERTFHYFGGTARSGHVVDVEGSIVVIGDINPGAVVHATGSIYCLGALRGTVHAGKGGNHQAVIAASVLQPKWISISDFVYEDPDDAPIQALDMGCAFVGETGVEFSRLQTVPLARMDQFAIDSERG,not soluble
15,MGSDKIHHHHHHMIFSNLKLNDNEPIYIQLKNYISDMISKGLIPDNSKLPSTRELSQLLQVSRNSVVLTYEELKSEGLIYSISGKGTFVKSKNKSSNTTWSLNWDCLENTYSKKANELDIIKSEIPWSSDLISFKSISPDGDLFDMEELKKSFLNRISLEGHKLLNYGYAQGYKPLIDYLLEYMTNKGADISNKDILITNGFTEGFDIIMSSFTQEKDYIICENPTHNTAIKIMKSHNLNILGVDINEDGLDFNMLEDNLIKYKNKIKFAYITPSYHNPTGIVMTPENRYKFYNLMKKYNIAIIEDGFNEELLYNSSHIFPICSLDNMNNGVVYIGSFSKILFPGMRIGWIFADKKVINKLESVKRCRNIHVSFLDQGILFDYLSNGGFEKYIKKIRKFYGDKFNFAYKCIKKYIKTEYILGDGGLHIFIKLKNIDTRVLLEKCYEKNVIFMPGDLFFTDNSGFDTLRLGFSRLSFEDIEIGIKIIGETINEMF,not soluble
16,MGSDKIHHHHHHMIGHSEVIRCFGMSGKVYFFNDSGNIQKGVHDLPPKGLACFVKIKNMMMQAKPAEVSMVDALVDPWLGAIGRDFEGYRNHCRRVFIFACTLAGAEGESREKIAIAAAFHDLGIWTDNTFDYLEPSKRLASAYLASTSKAEWTDEIKAMIEQHHKVTPWSCKPGWLVEPFRKADWIDVTLGARNFELNRSYIREIQRRYPNAGFHATLARLSFERMKTHPKDPLPMMRW,not soluble
17,MGSDKIHHHHHHMIGVRLLVKMSFRSGFRVGRGNETDSTLPTIHSDTIYGAVVYHAFKWSEKAEDFAKKLKVSSLLFVRGDRLLVPKPFLYNTYSLEEDDEESPKELKKASYVFLDKLADYRSIKEASGAVCKENPVEIVRIPRNSLDRITSSSNLYFVEVAFVKEGFTPAFLAEFPDEYEGLFKTAVKSLGDSGIGADSTYGYGLFNAEFESAPDFPEEGEYYLTLSLFVPSAEERSKMNEGYYRVVKRRGVKRDEMKVKKEISYVQEGSVFPFKPEGRGVLKIEDYFVQTSPLCVAFGGDGK,not soluble
18,MGSDKIHHHHHHMIHRQTNQLNTDNLEKKQRQYKYAFNLAEIDSESFPMHIFRKYAKDVFEDHQLSLLQRGERQGEYILRQQISHYLFNSRGVTCHPNQIIVGSSTSQLLDMITNLLKKEEFIIEQPSYPPIKHTLDKKGISYIQVPVEQNGIQIDPILNTNNNILYITPSHQFPTGYVTNLKKRTQLINWSHQAKQRYIIEDDYDSEFRYFGKPIPALQSLDTKGKVIYISTFSKSLYPSCRIAYIVLPQNLMHKYNNQKYKEGNTVPVHVQHMIAQFMISGKFERHLNKMRKIYRDKLDYILKRLKPYNTQIKIEGALTGMHFTITVNNGLSMKQCLKNAKKNNLKLKPYHYENYSKVYPKFILGFGGIKKEELEDHVNALIHSLVI,not soluble
